± gives the standard deviation of the averaged measurements.
Assay: total protein half-life in vivo (active degradation + dilution); higher = more stable protein
[1] = E. coli NCM3722 delta-clpP delta-lon delta-hslV, growth: N-lim chemostat, doubling time 6 h
[2] = E. coli NCM3722 delta-clpP, growth: N-lim chemostat, doubling time 6 h
[3] = E. coli NCM3722 delta-hslV, growth: N-lim chemostat, doubling time 6 h
[4] = E. coli NCM3722 delta-lon, growth: N-lim chemostat, doubling time 6 h
[5] = E. coli NCM3722 delta-smpB, growth: N-lim chemostat, doubling time 6 h
[6] = wild type E. coli NCM3722, growth: C-lim chemostat, doubling time 3 h
[7] = wild type E. coli NCM3722, growth: C-lim chemostat, doubling time 6 h
[8] = wild type E. coli NCM3722, growth: C-lim chemostat, doubling time 12 h
[9] = wild type E. coli NCM3722, growth: N-lim chemostat, doubling time 6 h
[10] = wild type E. coli NCM3722, growth: N-lim chemostat, doubling time 12 h
[11] = wild type E. coli NCM3722, growth: P-lim chemostat, doubling time 6 h
[12] = wild type E. coli NCM3722, growth: P-lim chemostat, doubling time 12 h

| Sequence | total protein half-life in vivo [1] | total protein half-life in vivo [2] | total protein half-life in vivo [3] | total protein half-life in vivo [4] | total protein half-life in vivo [5] | total protein half-life in vivo [6] | total protein half-life in vivo [7] | total protein half-life in vivo [8] | total protein half-life in vivo [9] | total protein half-life in vivo [10] | total protein half-life in vivo [11] | total protein half-life in vivo [12] |
| --- | --- | --- | --- | --- | --- | --- | --- | --- | --- | --- | --- | --- |
| MFYPDPFDVIIIGGGHAGTEAAMAAARMGQQTLLLTHNIDTLGQMSCNPAIGGIGKGHLVKEVDALGGLMAKAIDQAGIQFRILNASKGPAVRATRAQADRVLYRQAVRTALENQPNLMIFQQAVEDLIVENDRVVGAVTQMGLKFRAKAVVLTVGTFLDGKIHIGLDNYSGGRAGDPPSIPLSRRLRELPLRVGRLKTGTPPRIDARTIDFSVLAQQHGDNPMPVFSFMGNASQHPQQVPCYITHTNEKTHDVIRSNLDRSPMYAGVIEGVGPRYCPSIEDKVMRFADRNQHQIFLEPEGLTSNEIYPNGISTSLPFDVQMQIVRSMQGMENAKIVRPGYAIEYDFFDPRDLKPTLESKFIQGLFFAGQINGTTGYEEAAAQGLLAGLNAARLSADKEGWAPARSQAYLGVLVDDLCTLGTKEPYRMFTSRAEYRLMLREDNADLRLTEIGRELGLVDDERWARFNEKLENIERERQRLKSTWVTPSAEAAAEVNAHLTAPLSREASGEDLLRRPEMTYEKLTTLTPFAPALTDEQAAEQVEIQVKYEGYIARQQDEIEKQLRNENTLLPATLDYRQVSGLSNEVIAKLNDHKPASIGQASRISGVTPAAISILLVWLKKQGMLRRSA [P0A6U3] | 5.157 ± 0.0054 h | 4.25 ± 0.18 h | 1.64 ± 0.088 h | 1.831 ± 0.014 h | 1.73 ± 0.065 h | 1.42 ± 0.081 h | 2.35 ± 0.068 h | 3.19 ± 1.2 h | 1.71 ± 0.14 h | 2.48 ± 0.15 h | 1.9 ± 0.13 h | 3.12 ± 0.84 h |
| MGAELVKWVKSHKIDAHIITFVAKMPYIDSIKLLEAGAKGCVWKTSHPAKLNRAIDSISNGYTYFDSVHMDCEKISSRYSSDNQLTNRESEILQLIADGKTNKEIANFLQLSRKTVETHRLNIMKKLDVHSGIELIKTALRMGVCTI | 5.42 h | – | – | 5.01 h | 5.08 ± 0.25 h | 2.7 h | 4.55 ± 1.5 h | 8.41 ± 2.9 h | 5.22 ± 0.2 h | – | – | – |
| MGDIMRPIPFEELLTRIFDEYQQQRSIFGIPEQQFYSPVKGKTVSVFGETCATPVGPAAGPHTQLAQNIVTSWLTGGRFIELKTVQILDRLELEKPCIDAEDECFNTEWSTEFTLLKAWDEYLKAWFALHLLEAMFQPSDSGKSFIFNMSVGYNLEGIKQPPMQQFIDNMMDASDHPKFAQYRDTLNKLLQDDAFLARHGLQEKRESLQALPARIPTSMVHGVTLSTMHGCPPHEIEAICRYMLEEKGLNTFVKLNPTLLGYARVREILDVCGFGYIGLKEESFDHDLKLTQALEMLERLMALAKEKSLGFGVKLTNTLGTINNKGALPGEEMYMSGRALFPLSINVAAVLSRAFDGKLPISYSGGASQLTIRDIFDTGIRPITMATDLLKPGGYLRLSACMRELEGSDAWGLDHVDVERLNRLAADALTMEYTQKHWKPEERIEVAEDLPLTDCYVAPCVTACAIKQDIPEYIRLLGEHRYADALELIYQRNALPAITGHICDHQCQYNCTRLDYDSALNIRELKKVALEKGWDEYKQRWHKPAGSGSRHPVAVIGAGPAGLAAGYFLARAGHPVTLFEREANAGGVVKNIIPQFRIPAELIQHDIDFVAAHGVKFEYGCSPDLTIEQLKNQGFHYVLIATGTDKNSGVKLAGDNQNVWKSLPFLREYNKGTALKLGKHVVVVGAGNTAMDCARAALRVPGVEKATIVYRRSLQEMPAWREEYEEALHDGVEFRFLNNPERFDADGTLTLRVMSLGEPDEKGRRRPVETNETVTLLVDSLITAIGEQQDTEALNAMGVPLDKNGWPDVDHNGETRLTDVFMIGDVQRGPSSIVAAVGTARRATDAILSRENIRSHQNDKYWNNVNPAEIYQRKGDISITLVNSDDRDAFVAQEAARCLECNYVCSKCVDVCPNRANVSIAVPGFQNRFQTLHLDAYCNECGNCAQFCPWNGKPYKDKITVFSLAQDFDNSSNPGFLVEDCRVRVRLNNQSWVLNIDSKGQFNNVPPELNDMCRIISHVHQHHHYLLGRVEV | 6.26 ± 1.4 h | 5.57 h | 5.57 h | 6.62 h | – | 2.86 ± 0.32 h | 6.06 h | – | 6.49 h | – | – | – |
| MGFKCGIVGLPNVGKSTLFNALTKAGIEAANFPFCTIEPNTGVVPMPDPRLDQLAEIVKPQRTLPTTMEFVDIAGLVKGASKGEGLGNQFLTNIRETEAIGHVVRCFENDNIIHVSGKVNPADDIEVINTELALADLDTCERAIHRVQKKAKGGDKDAKAELAVLEKCLPQLENAGMLRALDLSAEEKAAIRYLSFLTLKPTMYIANVNEDGFENNPYLDQVREIAAKEGSVVVPVCAAVEADIAELDDEERDEFMQELGLEEPGLNRVIRAGYKLLNLQTYFTAGVKEVRAWTIPVGATAPQAAGKIHTDFEKGFIRAQTISFEDFITYKGEQGAKEAGKMRAEGKDYIVKDGDVMNFLFNV [P0ABU2] | 3.92 ± 0.14 h | 3.74 ± 0.63 h | 3.66 ± 0.24 h | 4.72 ± 0.67 h | 3.69 ± 0.13 h | 3.61 ± 0.17 h | 4.77 ± 0.28 h | 9.13 ± 0.49 h | 3.5 ± 0.18 h | 5.15 ± 0.31 h | 5.12 ± 0.4 h | 9.68 ± 0.37 h |
| MGFLSGKRILVTGVASKLSIAYGIAQAMHREGAELAFTYQNDKLKGRVEEFAAQLGSDIVLQCDVAEDASIDTMFAELGKVWPKFDGFVHSIGFAPGDQLDGDYVNAVTREGFKIAHDISSYSFVAMAKACRSMLNPGSALLTLSYLGAERAIPNYNVMGLAKASLEANVRYMANAMGPEGVRVNAISAGPIRTLAASGIKDFRKMLAHCEAVTPIRRTVTIEDVGNSAAFLCSDLSAGISGEVVHVDGGFSIAAMNELELK [P0AEK4] | 5.4 ± 0.09 h | 5.37 ± 0.42 h | 5.299 ± 0.046 h | 5.88 ± 0.25 h | 4.97 ± 0.28 h | 3.26 ± 0.14 h | 5.9 ± 1.1 h | 11 ± 1.2 h | 5.28 ± 0.18 h | 10.2 ± 2 h | 6.19 ± 0.08 h | 13.74 ± 0.13 h |
| MGHKPLYRQIADRIREQIARGELKPGDALPTESALQTEFGVSRVTVRQALRQLVEQQILESIQGSGTYVKEERVNYDIFQLTSFDEKLSDRHVDTHSEVLIFEVIPADDFLQQQLQITPQDRVWHVKRVRYRKQKPMALEETWMPLALFPDLTWQVMENSKYHFIEEVKKMVIDRSEQEIIPLMPTEEMSRLLNISQTKPILEKVSRGYLVDGRVFEYSRNAFNTDDYKFTLIAQRKSSR | 5.56 ± 0.42 h | 5.47 ± 0.059 h | 5.26 ± 0.32 h | 4.83 ± 0.42 h | 4.99 ± 0.07 h | 2.985 ± 0.0092 h | – | – | 5.354 ± 0.041 h | 9.53 ± 0.028 h | 5.8 ± 0.12 h | 12.1 ± 1.1 h |
| MGIFKAKNPCTKNTIFTTSNTLIYGGFMISLNDFYEQICRKRRDLAYHMSECEWAVDTDVLEEDHPEIRIELGRMREQFWSSEKIGTRVRLYSCDVPWETRHHTVNGQLEIKEEYTELYDPAQECWKNLSSNLTKETFLPLVIEPFSINDIFKAHLMFASISFFWGKSIMSENENVAFKAFHRAAELFDKCIGMTWFNISVCNQKKLSEVRRSAGKKGGKSKAEVYHIIQLKLVELINDSVPNDGWKNKVVAVNELIEPLWDFIQMSEFEINNQNKKYRVATMSQDALVDTILNQWSLKNEDVKQAFDSAVRRKKRSK | 5.49 ± 0.65 h | – | – | – | – | – | – | – | – | – | – | – |
| MGIIAQNKISSLGMLFGAIALMMGIIHFSFGPFSAPPPTFESIVADKTAEIKRGLLAGIKGEKITTVEKKEDVDVDKILNQSGIALAIAALLCAFIGGMRKENRWGIRGALVFGGGTLAFHTLLFGIGIVCSILLIFLIFSFLTGGSLV | – | – | – | – | – | – | – | – | 5.09 h | – | – | – |

Source: the supplement of paper PMC11246515
